“Also recorded” adds a separate entry of the source.

Consider three molecules from patent US9260754B2, “Connexin mutation detection for lymphatic variation and disease” (University of Pittsburgh—Of the Commonwealth System of …, priority 2010, dated 2016).

Assay type in all cases: cell-based, human
Assay [1] relates to HeLa cells. As to the kind of experiment: Cx47 gap junction plaque formation by immunofluorescent confocal microscopy in transfected HeLa cells. The settings on record: near confluent transfected HeLa cells. The method, then: Human neonatal foreskin was collected anonymously as discarded tissue according to an IRB protocol. Samples were collected immediately after harvest in DMEM, then fixed in 2% paraformaldehyde for 2 hrs, then stored in 30% sucrose in 1×PBS overnight for cryosectioning, and sectioned in 6 μm slices at −30° C. Transfected (stable and transient) and untransfected HeLa cells were grown to near confluence in coverslip bottom dishes. All cells were rinsed with PBS and fixed with 2% paraformaldehyde. Subsequently, tissue and HeLa cells were processed similarly: following permeabilization with 0.1% Triton X, cells were blocked with 2% BSA. A human Cx47 antibody (ab) was obtained from the S. Scherer laboratory: polyclonal rabbit against amino acids 344-399 in the cytoplasmic C-terminal tail; we used human CNS tissue and positive oligodendrocyte staining as a positive control and primary antibody delete and rabbit IgG as negative controls (data not shown). Cx47 ab was diluted in 0.5% BSA in a 1:200 ratio, applied to cells and incubated at RT for one hour. Mouse monoclonal Proxl (Chemicon) was used as a lymphatic marker for the foreskin samples. Cells were incubated with the secondary abs (Donkey Anti-Rabbit Cy5 and Donkey Anti-Mouse Cy3; Invitrogen) for one hour at RT and washed; Draq5 was used as a nuclear marker. HeLa images were acquired with an inverted Olympus Fluoview 1000 Confocal Microscope 100× oil, 1.4 NA objective. Foreskin images were acquired on a Zeiss Meta LSM 510 inverted confocal microscope with 40× oil, 1.3 N.A. objective. LECs (primary human microvascular adult dermal lymphatics; Lonza) were grown in fibronectin coated coverslip bottom MatTeks dishes in EGM™-2 MV—Microvascular Endothelial Cell Medium-2 (Lonza Inc.) to approximately 80% confluence, and prepared similarly but a commercially available (AbCam) Cx47 ab, polyclonal rabbit against amino acids 41-70 in the human sequence was used along with Drag 5 nuclear marker and phalloidin to mark f-actin.
Immunofluorescence microscopy determines the presence or absence of Cx47 gap junction plaques when the constructs are transiently expressed in HeLa cells. Cx plaques reflect a physiologic accumulation of Cx channels in the cell membrane between cells (tens to thousands of channels); thus plaques are indicative of normal trafficking and gap junction formation at the cell membrane.
Immunofluorescence microscopy determines the presence or absence of Cx47 gap junction plaques when the constructs are transiently expressed in HeLa cells. A human Cx47 antibody was obtained: polyclonal rabbit against amino acids 344-399 in the cytoplasmic C-terminal tail (Orthmann-Murphy J L, et al. Mol Cell Neurosci 2007; 34:629-41); we used human CNS tissue and positive oligodendrocyte staining as a positive control and primary antibody delete as a negative control (data not shown). Cultured HeLa cells were routinely fixed and stained with the primary antibodies against Cx47, along with a nuclear marker, and transfected cells were identified by their EGFP signal. Plaques were imaged using an Olympus Fluoview 1000 confocal microscope, 100× oil objective.

Assay [2] has as its system HeLa cells. In words: Calcein AM scrape loading and dye transfer in stably transfected HeLa cells. The following applies: for dye transfer: ratio, rate normalized to untransfected HeLa cells, Calcein AM scrape loading, 10 min, stably transfected HeLa, mean ± SEM. The method, then: A confluent monolayer of HeLa cells (untransfected and stably transfected, as described above) was grown in DMEM with 10% FBS in coverslip bottom plates (MatTek) and placed in a temperature controlled microincubator (Zeiss). A 10×, 0.4 NA objective was used to collect DIC and GFP images every 5 seconds for 10 minutes without changing media. A pipette loaded with 1 μl Calcein AM (Invitrogen), a gap junction permissive dye with molecular weight 662, −4 charge when intracellular and fluorescent, was used to create a scrape across the monolayer. At least 5 replicate dishes were analyzed on the same day, and WT hCx47 expressing HeLas were grown and assayed as a concurrent control; assays were performed on at least 2 different batches of HeLa cells on different days. Quantitation of the rate of spread was calculated using MetaMorph, by obtaining integrated intensity at the 10th time point, within the first minute of imaging, and then at the endpoint at 10 min, and subtracting the initial intensity from that at the endpoint. Results are reported as mean and SEM, and tested for significance (p<0.05) using an unpaired Student's t-test.
In these mutants, Cx47 appears to concentrate in the ER. Unlike electrophysiologic measurements, dye transfer assays are used to assess GJIC of relatively large molecules. We also found significant differences in GJIC in HeLa cells overexpressing Cx47 lymphedema associated mutations by assessing rates of dye transfer in a conventional scrape assay using stably transfected HeLa cells normalized to rates in untransfected HeLa cells (FIG. 7D; Table 3). […] It is not surprising that the mutants show some differences in GJIC between the electrophysiologic and dye transfer assays given that they are designed to measure different kinds of transport and that Cx channel permeability is now believed to be governed by factors including molecular shape, charge and size, in addition to channel conformation and composition.

Another assay has as its system HeLa cell pairs. As to the kind of experiment: Dual whole cell patch clamp recording of coupling current in transfected HeLa cell pairs. The settings on record: for elect coupling: Table 3 (Example 2), HeLa cell pairs, 100 mV step, mean ± SEM; for electrical coupling / functional channels in HeLa cell pairs (in words): transfected HeLa cell pairs, voltage step protocol −100 to +100 mV. The method, then: Coupling currents were recorded using simultaneous double whole-cell patch clamp recordings from isolated pairs of cells that were in contact with one another (determined visually) as previously described. Briefly, the pipette solution consisted of (mM): 130 CsCl, 10 EGTA, 10 HEPES, 3 Mg-ATP, 2 Na-ATP, 0.5 CaCl2, pH 7.3. The culture was bathed in a solution consisting of (mM): 140 NaCl, 5 HEPES, 5 glucose, 4 KCl, 2 CsCl, 2 CaCl2, 2 pyruvate, 1 BaCl2, pH 7.3. Transfected HeLas undergo electrophysiologic analysis in a blinded manner. Pairs of cells were chosen for study only if both expressed the GFP marker indicative of successful transfections; both stable and transient transfectants were analyzed. Patch pipettes were fabricated from borosilicate glass, and coupling currents were amplified by Axopatch 200A amplifiers, filtered at 1 KHz, and digitized at 5 KHz for subsequent analysis using pClamp software (Axon Instruments/Molecular Devices; Sunnyvale, Calif.). All experiments were carried out at room temperature (22° C.). Coupling current was quantified by measuring the peak current recorded in the pair when the neighboring cell received a 100 mV step membrane potential change (in both positive and negative directions). Step changes in membrane potential were delivered to each cell in the pair in sequence and the average current recorded in the neighboring cell was determined and divided by 100 to generate coupling current expressed in pA/mV. Means±SEM were calculated and statistical significance using a one-way analysis of variance and Tukey's post-hoc test, p<0.05.
Coupling current is quantified by measuring the peak current recorded in the pair when the neighboring cell receives a 100 mV step membrane potential change (in both positive and negative directions). Step changes in membrane potential are delivered to each cell in the pair in sequence and the average current recorded in the neighboring cell determined and divided by 100 to generate coupling current expressed in pA/mV (FIG. 6C). Replicate measurements (n=3-6) are made on at least two different days. […] The untransfected HeLa cell pairs also show minimal channel function, as predicted.
Electrophysiologic characteristics of GJIC were measured between HeLa cell pairs transfected with the mutant constructs (as indicated by EGFP expression) by dual whole cell patch clamp recording. All experiments were carried out in a blinded manner. Coupling current is quantified by measuring the peak current recorded in the pair when the neighboring cell receives a 100 mV step membrane potential change (in both positive and negative directions). Step changes in membrane potential are delivered to each cell in the pair in sequence and the average current recorded in the neighboring cell determined and divided by 100 to generate coupling current expressed in pA/mV. Untransfected HeLa cells and cells transfected with empty vector (i.e., no hCx47) were used as additional controls.
In general terms: The patch-clamp technique gives a direct electrical read-out from membranes.

B1: S45L: Cx47 missense mutant S45L (134C>T), extracellular loop 1, construct expressed in HeLa cells (protein, listed as Homo sapiens)
chain: MSWSFLTRLLEEIHNHSTFVGKVWLTVLVVFRIVLTAVGGEAIYLDEQAKFTCNTRQPGCDNVCYDAFAPLSHVRFWVFQIVVISTPSVMYLGYAVHRLARASEQERRRALRRRPGPRRAPRAHLPPPHAGWPEPADLGEEEPMLGLGEEEEEEETGAAEGAGEEAEEAGAEEACTKAVGADGKAAGTPGPTGQHDGRRRIQREGLMRVYVAQLVARAAFEVAFLVGQYLLYGFEVRPFFPCSRQPCPHVVDCFVSRPTEKTVFLLVMYVVSCLCLLLNLCEMAHLGLGSAQDAVRGRRGPPASAPAPAPRPPPCAFPAAAAGLACPPDYSLVVRAAERARAHDQNLANLALQALRDGAAAGDRDRDSSPCVGLPAASRGPPRAGAPASRTGSATSAGTVGEQGRPGTHERPGAKPRAGSEKGSASSRDGKTTVWI
With B1, in the assay with HeLa cells [1], the “Cx47 plaque formation (in words)” value is listed as “absence; also recorded: fail to demonstrate Cx 47 plaques”. Also, the dye transfer in the assay on HeLa cells [2] was 1.11. Moreover, in the assay with HeLa cell pairs, the elect coupling was determined as 0.1 pA/mV and the “electrical coupling / functional channels in HeLa cell pairs (in words)” value is listed as “absence of coupling; also recorded: do not exhibit functional channels”.

B2: P313L: Cx47 missense mutant P313L (938C>T), C-terminal, construct expressed in HeLa cells (protein, listed as Homo sapiens)
chain: MSWSFLTRLLEEIHNHSTFVGKVWLTVLVVFRIVLTAVGGEAIYSDEQAKFTCNTRQPGCDNVCYDAFAPLSHVRFWVFQIVVISTPSVMYLGYAVHRLARASEQERRRALRRRPGPRRAPRAHLPPPHAGWPEPADLGEEEPMLGLGEEEEEEETGAAEGAGEEAEEAGAEEACTKAVGADGKAAGTPGPTGQHDGRRRIQREGLMRVYVAQLVARAAFEVAFLVGQYLLYGFEVRPFFPCSRQPCPHVVDCFVSRPTEKTVFLLVMYVVSCLCLLLNLCEMAHLGLGSAQDAVRGRRGPPASAPAPAPRPLPCAFPAAAAGLACPPDYSLVVRAAERARAHDQNLANLALQALRDGAAAGDRDRDSSPCVGLPAASRGPPRAGAPASRTGSATSAGTVGEQGRPGTHERPGAKPRAGSEKGSASSRDGKTTVWI
For the molecule B2, the dye transfer in the assay on HeLa cells [2] is 2.10. In the assay with HeLa cell pairs, the elect coupling stood at 37.6 pA/mV and the “electrical coupling / functional channels in HeLa cell pairs (in words)” value is listed as “well coupled”.

B3: R257C: Cx47 missense mutant R257C (769C>T), extracellular loop 2, construct expressed in HeLa cells (protein, listed as Homo sapiens)
chain: MSWSFLTRLLEEIHNHSTFVGKVWLTVLVVFRIVLTAVGGEAIYSDEQAKFTCNTRQPGCDNVCYDAFAPLSHVRFWVFQIVVISTPSVMYLGYAVHRLARASEQERRRALRRRPGPRRAPRAHLPPPHAGWPEPADLGEEEPMLGLGEEEEEEETGAAEGAGEEAEEAGAEEACTKAVGADGKAAGTPGPTGQHDGRRRIQREGLMRVYVAQLVARAAFEVAFLVGQYLLYGFEVRPFFPCSRQPCPHVVDCFVSCPTEKTVFLLVMYVVSCLCLLLNLCEMAHLGLGSAQDAVRGRRGPPASAPAPAPRPPPCAFPAAAAGLACPPDYSLVVRAAERARAHDQNLANLALQALRDGAAAGDRDRDSSPCVGLPAASRGPPRAGAPASRTGSATSAGTVGEQGRPGTHERPGAKPRAGSEKGSASSRDGKTTVWI
Take B3: the “Cx47 plaque formation (in words)” value with HeLa cells [1] is “absence; also recorded: fail to demonstrate Cx 47 plaques”. For the same molecule, in the assay with HeLa cells [2], the dye transfer is 2.56. In addition, the “Calcein AM dye transfer compared to WT-hCx47 transfected HeLa cells (in words)” value in the assay with HeLa cells [2] (stably transfected HeLa cells, scrape assay) is given as “significantly greater dye transfer”. Moreover, in the assay with HeLa cell pairs, the elect coupling is reported as 0.0 pA/mV and the “electrical coupling / functional channels in HeLa cell pairs (in words)” value is listed as “absence of coupling; also recorded: do not exhibit functional channels”.
